Changes are numbered by the printed parent chain.
Key:
[1] = target: T1, I-CreI_3115 chain 1;I-CreI_3115 chain 2 (;, UniProt P05725;P05725 1-163;1-163, Y33G;Q38K;Q44K;R68Y;R70S;D75N;I77Y;I132V|G19S;Y33V;Q38R;S40Q;Q44D;R68A;R70S;D75K …); assay: MST; 2 mM CaCl2; labelled DNA; MST at 25 C: 50 mM Tris pH 8.0 (I-CreI_3115; 2 or 10 mM CaCl2) or 50 mM Hepes pH 7.5 (I-CreI_D75N; 10 mM CaCl2), 300 mM NaCl, 0.5 mM TCEP, 0.05% Tween-20; conditions: protein: recombinant;recombinant; tags: ;; copies: 1;1; label: Cy5 on coding strand (5'); blunt
T1 sequence 1: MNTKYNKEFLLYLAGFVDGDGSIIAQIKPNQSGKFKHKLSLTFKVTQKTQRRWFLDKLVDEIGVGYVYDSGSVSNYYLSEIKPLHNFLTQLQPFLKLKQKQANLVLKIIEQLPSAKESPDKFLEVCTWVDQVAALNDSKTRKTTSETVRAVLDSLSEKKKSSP
T1 sequence 2: T1 sequence 1 with G19S, G33V, K38R, S40Q, K44D, Y68A, N75K, Y77R, V132I

[2] = target: T2, I-CreI_D75N (UniProt P05725 1-163, D75N); assay: crystal structure; 2 mM Ca2+; MST at 25 C: 50 mM Tris pH 8.0 (I-CreI_3115; 2 or 10 mM CaCl2) or 50 mM Hepes pH 7.5 (I-CreI_D75N; 10 mM CaCl2), 300 mM NaCl, 0.5 mM TCEP, 0.05% Tween-20; conditions: protein: recombinant; chain copies: 2; blunt; self-annealed palindrome
T2 sequence: T1 sequence 1 with G33Y, K38Q, K44Q, Y68R, S70R, Y77I, V132I

[3] = target: T2, I-CreI_D75N; assay: crystal structure; 2 mM Mg2+; uncleaved DNA; MST at 25 C: 50 mM Tris pH 8.0 (I-CreI_3115; 2 or 10 mM CaCl2) or 50 mM Hepes pH 7.5 (I-CreI_D75N; 10 mM CaCl2), 300 mM NaCl, 0.5 mM TCEP, 0.05% Tween-20; conditions: protein: recombinant; chain copies: 2; blunt

B1: I-CreI_3115_target (Cy5) (dsDNA)
DNA 1: TCAGACTTCTCCACAGGAGTCAGA
DNA 2: TCTGACTCCTGTGGAGAAGTCTGA
Kd [1]: 90 nM

B2: I-CreI_D75N_target (dsDNA)
DNA 1: TCAAAACGTCGTACGACGTTTTGA
DNA 2: TCAAAACGTCGTACGACGTTTTGA
binding result [2]: binds

B3: I-CreI_D75N_target-null (dsDNA)
DNA 1: TCAAAACTGCGTACGACGTTTTGA
DNA 2: TCAAAACGTCGTACGCAGTTTTGA
binding result [3]: binds

Reference: publication PMC6035192, “Understanding the indirect DNA read-out specificity of I-CreI Meganuclease”
